No end group written: not given here.
Tests used:
human CD123-Fc = biological target: T1, human CD123-Fc (human, UniProt P26951 19-305, limits assumed); experiment: SPR, Biacore X100, human CD123-Fc on CM5 chip, 1:1 model; KD CD123 (first number of the cell)
T1 construct: Coupled to a CM5 sensor chip; also called soluble recombinant CD123; not shown: Fc part
T1 sequence (looked up): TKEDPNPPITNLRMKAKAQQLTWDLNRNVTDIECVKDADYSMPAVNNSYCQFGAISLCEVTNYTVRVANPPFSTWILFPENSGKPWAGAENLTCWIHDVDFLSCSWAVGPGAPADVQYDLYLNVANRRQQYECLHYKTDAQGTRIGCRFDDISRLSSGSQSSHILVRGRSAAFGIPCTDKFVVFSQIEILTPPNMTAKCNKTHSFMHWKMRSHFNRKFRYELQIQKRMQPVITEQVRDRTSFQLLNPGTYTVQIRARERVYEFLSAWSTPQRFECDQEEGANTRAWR
Experimental: Binding of different variants of the targeting module according to the invention was analyzed by SPR measurements using human CD123-Fc coupled to a CM5 sensor chip on a Biacore X100 device (FIG. 2). Targeting modules were purified monomer except for the targeting module according to SEQ ID No. 8. […] For data fitting and KD calculation a 1:1 binding model was applied.

[1] = biological target: T2, CD123 on CD123 positive AML cells (Oci-AML3, Molm-13, MV4-11, primary AML cells) (human, UniProt P26951 19-378); experiment: flow cytometry on Molm-13 cells, anti-His-PE detection. Half-maximal binding from a four-parameter fit of gMFI. Unit taken from the concentration axis [M]
T2 construct: whole, on cells; Endogenous CD123 on human AML cell lines; also called target antigen CD123
Experimental: Cellular binding of CD123-binding targeting modules (TM) was tested on CD123 positive target cell lines Oci-AML3 and Molm-13: A) SEQ ID No. 5 to Oci-AML3, B) SEQ ID No. 9 to Oci-AML3, C) SEQ ID No. 4 to Molm-13 and D) SEQ ID No. 6 to Molm-13. The affinity of TMs was analyzed by flow cytometry. The TMs were titrated on an AML cell lines and then detected by a mouse anti-His-tag antibody conjugated to phycoerythrin.
Different concentrations of R-TM123 were incubated with cells, washed and quantified. A dose-response curve was obtained when the geometric mean fluorescence (MFI) was plotted against the TM concentration.

[2] = biological target: T2, CD123 on CD123 positive AML cells …; experiment: cellular binding assay per table caption, Oci-AML3 cells
[3] = biological target: T3, La epitope 5B9 (SEQ ID No. 28) fused to human Fc domain (human, also: fused to human Fc domain, order, isotype, linker not given here); experiment: SPR, Biacore X100, La epitope 5B9-human Fc on CM5 chip; KD 5B9 (second number of the cell)
T3 construct: Coupled to a CM5 sensor chip; not shown: human Fc domain
T3 chain: KPLPEVTDEY
Experimental: Furthermore, binding of different variants of the targeting module according to the invention was analyzed using the La epitope 5B9 (SEQ ID No. 28) fused to human Fc domain which was coupled to a CM5 sensor chip on a Biacore X100 device (FIG. 3). The targeting modules were purified monomers. The targeting modules were concentrated between 2.47 to 200 nM and measured in technical duplicates. For data fitting and KD calculation a two-state-reaction binding model was applied.

[4] = biological target: T2, CD123 on CD123 positive AML cells …; experiment: cellular binding assay per table caption, Molm-13 cells

Kd (human CD123-Fc): 0.044 nM | Kd [1]: 7.69 nM | EC50 [2]: 6.2 pM | Kd [3]: 2.1 nM | EC50 [4]: 1.7 pM
B1: targeting module according to SEQ ID No. 6 (bispecific antibody)
chain: EVQLQQSGPELVKPGASVKMSCKASGYTFTDYYMKWVKQSHGKSLEWIGDIIPSNGATFYNQKFKGKATLTVDRSSSTAYMHLNSLTSEDSAVYYCTRSHLLRASWFAYWGQGTLVTVSAASGGGGSGGGGSGGGGSDFVMTQSPSSLTVTAGEKVTMSCKSSQSLLNSGNQKNYLTWYLQKPGQPPKLLIYWASTRESGVPDRFTGSGSGTDFTLTISSVQAEDLAVYYCQNDYSYPYTFGGGTKLEIKAAARGDIVMTQSPDSLAVSLGERVTMNCKSSQSLLNSRTPKNYLAWYQQKPGQSPKLLIYWASTRKSGVPDRFSGSGSGTDFTLTISSVQAEDVAVYYCKQSYNLLTFGGGTKLEIKGGGGSGGGGSGASAAGGGGSGGGGSQVQLVESGAEVVKPGASVKLSCKASGYAFTHYYIYWIKQAPGQGLEWIGGVNPSNGGTHFNEKFKSRATLTVDTSISTAYMELSRLRSDDTAVYYCTRSEYDYGLGFAYWGQGTLVTVSSGGGGSHHHHHHHH
notes: also called muCD123 + rs5B9-VL-VH

From US20250269025A1 (AVENCELL THERAPEUTICS, published 2025)
